Assay results: article PMC8763006

Target: glutathione S-transferase Pi 1 (GSTP1) (human (endogenous in 97H and Huh7)), P09211
Experiment: native gel or EMSA; total protein of 97H-PCSK9 and 97H-mock cells in nondenaturing, nonreducing buffer without boiling, PAGE gel without SDS; Western blot with anti-GSTP1
Conditions: remark: other sources report otherwise

B1: glutathione S-transferase Pi 1 (GSTP1), P09211 1-210 (natural protein)
chain: MPPYTVVYFPVRGRCAALRMLLADQGQSWKEEVVTVETWQEGSLKASCLYGQLPKFQDGDLTLYQSNTILRHLGRTLGLYGKDQQEAALVDMVNDGVEDLRCKYISLIYTNYEAGKDDYVKALPGQLKPFETLLSQNQGGKTFIVGDQISFADYNLLDLLLIHEVLAPGCLDAFPLLSAYVGRLSARPKLKAFLASPEYVNLPINGNGKQ
stoichiometry N: 2
